Measurements reported in doi:10.1101/489906 (bioRxiv, 2018).

Assays:
NSW-2012 GII.4 P domain = biological target: T1, NSW-2012 GII.4 P domain (Norovirus …, strain); test: ITC
T1 chain: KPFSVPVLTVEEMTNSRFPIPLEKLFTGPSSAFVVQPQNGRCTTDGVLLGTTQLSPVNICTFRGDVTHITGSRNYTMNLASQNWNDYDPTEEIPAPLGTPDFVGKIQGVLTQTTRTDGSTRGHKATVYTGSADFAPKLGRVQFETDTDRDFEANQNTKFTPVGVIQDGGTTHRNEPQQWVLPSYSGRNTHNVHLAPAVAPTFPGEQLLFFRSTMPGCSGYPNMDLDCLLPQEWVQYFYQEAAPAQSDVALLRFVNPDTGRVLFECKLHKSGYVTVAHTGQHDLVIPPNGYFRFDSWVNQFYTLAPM

Saga-2006 GII.4 VLPs = Saga-2006 GII.4 VLPs (Norovirus Hu/GII.4/Saga4/2006/JP …, UniProt B5BTR7, strain); test: ELISA
CHDC-1974 GII.4 VLPs = CHDC-1974 GII.4 VLPs (Norovirus Hu/GII.4/CHDC2094/1974/US …, UniProt D0QJ68, strain); test: ELISA

B1: 10E9 MAb (IgG) (antibody, V domains shown)
VH: QVQLQQSGAELMKPGASVKISCTATGYTFITYWIQWVKQRPGHGLEWIGETLPGSGSTNYNEKFKGKATFTADTSSNTAYMQLSSLTSEDSAIYYCARIGRSNDYWGQGTTLTVSS
VL: QIVLTQSPTIMSASPGEKVTMTCSASSSVDYMHWYQQKSGTSPKRWIYDTYKLASGVPARFSGSGSGTSYSLTINSMEAEDAATYYCQQWSSNPLTFGAGTKLELK
Kd (NSW-2012 GII.4 P domain): 59 nM | dH (NSW-2012 GII.4 P domain): -4.3 ± 0.011 kcal/mol | stoichiometry N (NSW-2012 GII.4 P domain): 0.98 | binding result (Saga-2006 GII.4 VLPs): binds | binding result (CHDC-1974 GII.4 VLPs): no binding
